US20240043521A1 (ARXX THERAPEUTICS, published 2024)
Positions count from the first letter of the chain named.

T1: human FcγRIIa-H (the high-affinity H131 variant) on Jurkat reporter cells (human, UniProt P12318 34-317)
T1 sequence (looked up): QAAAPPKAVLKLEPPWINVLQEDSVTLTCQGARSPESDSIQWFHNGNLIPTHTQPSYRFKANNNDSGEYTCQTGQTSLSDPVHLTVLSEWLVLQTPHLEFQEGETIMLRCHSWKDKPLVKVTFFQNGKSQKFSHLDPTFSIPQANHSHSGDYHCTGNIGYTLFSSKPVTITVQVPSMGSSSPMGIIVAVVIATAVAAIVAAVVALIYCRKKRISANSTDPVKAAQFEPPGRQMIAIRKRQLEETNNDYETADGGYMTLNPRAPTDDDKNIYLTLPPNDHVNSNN

T2: A8 (lane under "Human S100 Proteins")
T2 construct: also called human S100A8
T2 chain: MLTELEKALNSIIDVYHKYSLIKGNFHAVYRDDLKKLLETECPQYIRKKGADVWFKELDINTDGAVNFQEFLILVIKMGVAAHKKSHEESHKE

B1: VH1_40Phe:VL3_Leu44 (antibody, V domains shown)
VH: QVQLQESGPGLVKPSQTLSLTCTVSGDSFTNDYYWNWIRQFPGKGLEWIGHIGYGGNINYNPSLKNRLSMSRDTSKNQFSLKLSSVTAADTAVYYCTRESFYDGYPFDYWGQGTLVTVSS
VL: DIQMTQSPSSLSASVGDRVTITCRASQDIRNYLNWYQQKPGKALKLLLYYTSRLHSGVPSRFSGSGSGTDYTLTISSLQPEDFATYYCQQGNSLPRTFGGGTKVEIK
notes: also called Phe40/Leu44; VH1_H40Phe VL3_L44Leu
B2: AX-202, a humanized IgG4 monoclonal anti-S100A4 antibody (antibody)
heavy: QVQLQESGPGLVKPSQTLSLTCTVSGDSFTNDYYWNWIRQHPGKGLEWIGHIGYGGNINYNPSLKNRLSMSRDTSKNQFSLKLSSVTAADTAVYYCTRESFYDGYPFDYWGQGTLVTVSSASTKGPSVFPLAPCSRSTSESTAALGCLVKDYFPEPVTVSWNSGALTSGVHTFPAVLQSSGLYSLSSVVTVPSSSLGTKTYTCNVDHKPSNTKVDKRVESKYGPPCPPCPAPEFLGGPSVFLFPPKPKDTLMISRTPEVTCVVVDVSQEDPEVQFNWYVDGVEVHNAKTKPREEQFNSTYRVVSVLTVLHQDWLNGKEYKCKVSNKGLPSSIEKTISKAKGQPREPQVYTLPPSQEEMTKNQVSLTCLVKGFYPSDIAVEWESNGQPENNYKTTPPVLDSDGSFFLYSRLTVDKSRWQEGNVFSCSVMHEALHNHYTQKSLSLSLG
light: DIQMTQSPSSLSASVGDRVTITCRASQDIRNYLNWYQQKPGKALKLLLYYTSRLHSGVPSRFSGSGSGTDYTLTISSLQPEDFATYYCQQGNSLPRTFGGGTKVEIKRTVAAPSVFIFPPSDEQLKSGTASVVCLLNNFYPREAKVQWKVDNALQSGNSQESVTEQDSKDSTYSLSSTLTLSKADYEKHKVYACEVTHQGLSSPVTKSFNRGEC
B3: 6B12, mouse monoclonal IgG1 anti-S100A4 antibody (antibody, V domains shown)
VH: DVQLQESGPGLVKPSQSLSLTCSVTGDSFTNDYYWNWIRQFPGSKLEWMGHIGYGGNINYNPSLKNRISITRDTSKNQFFLRLTSVTTEDTATYYCTRESFYDGYPFDYWGQGTLVTVSA
VL: DIQMTQTTSSLSASLGDRVTISCRASQDIRNYLNWYQQRPGGTLKLLIYYTSRLHSGVPSRFSGSGSGTDYSLTISNLEQEDIATYFCQQGNSLPRTFGGGTKLEIK
notes: Mouse IgG1; also called 6B12 mIgG1; 6B12 IgG1
B4: VH1 VL3_L44Leu (antibody, V domains shown)
VH: B1 VH with F41H
VL: B1 VL
notes: Humanized antibody; also called VH1:VL3_Leu44; Leu44
B5: VH1_H40Phe VL3 (antibody, V domains shown)
VH: B1 VH
VL: B1 VL with L44P
notes: Humanized antibody; also called VH1_40Phe:VL3; Phe40
B6: VH1 VL3 (antibody, V domains shown)
VH: B1 VH with F41H
VL: B1 VL with L44P
notes: Humanized antibody
B7: VH1 VL3_L42Gly (antibody, V domains shown)
VH: B1 VH with F41H
VL: B1 VL with K42G, L44P
B8: VH1 VL3_L42Gly+L44Leu (antibody, V domains shown)
VH: B1 VH with F41H
VL: B1 VL with K42G
B9: VH1 VL3_L43Thr (antibody, V domains shown)
VH: B1 VH with F41H
VL: B1 VL with A43T, L44P
B10: VH1_H40Phe + H44Lys VL3 (antibody, V domains shown)
VH: B1 VH with G45K
VL: B1 VL with L44P
B11: VH1_H43Ser + H44Lys VL3 (antibody, V domains shown)
VH: B1 VH with F41H, K44S, G45K
VL: B1 VL with L44P
B12: VH1_H43Ser + H44Lys VL3_L44Leu (antibody, V domains shown)
VH: B1 VH with F41H, K44S, G45K
VL: B1 VL
B13: VH1_H43Ser VL3 (antibody, V domains shown)
VH: B1 VH with F41H, K44S
VL: B1 VL with L44P
B14: VH1_H43Ser VL3_L44Leu (antibody, V domains shown)
VH: B1 VH with F41H, K44S
VL: B1 VL
B15: VH1_H44Lys VL3 (antibody, V domains shown)
VH: B1 VH with F41H, G45K
VL: B1 VL with L44P
B16: VH0 VL3 (antibody, V domains shown)
VH: B3 VH
VL: B1 VL with L44P
B17: VH0 VL0: the VH and VL regions of 6B12 comprised in a humanized IgG4 isotype framework (antibody, V domains shown)
VH: B3 VH
VL: B3 VL
B18: VH1 VL0 (antibody, V domains shown)
VH: B1 VH with F41H
VL: B3 VL

biological target: T3, human S100A4 protein (human, UniProt P26447 1-101); test: Western blot
T3 construct: also called S100A4 (human)
T3 sequence (P26447 whole entry, one chain of several): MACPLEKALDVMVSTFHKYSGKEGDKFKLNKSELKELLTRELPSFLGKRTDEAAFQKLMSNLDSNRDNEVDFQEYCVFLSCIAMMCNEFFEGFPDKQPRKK

| Binder | binding result |
| --- | --- |
| B1 | binds |

biological target: T1, human FcγRIIa-H (the high-affinity H131 …); test: cell-based or functional assay

| Binder | FcγRIIa-H ADCP reporter; potency to induce FcγR activation against the same antibody with a human IgG1 scaffold [fold lower] | FcγRIIa-H ADCP reporter; fold higher activation than AX-202 hIgG4, immune complex with S100A4 dimer [fold] | FcγRIIa-H ADCP reporter; fold higher activation than AX-202 hIgG4, immune complex with S100A4 multimer [fold] |
| --- | --- | --- | --- |
| B2 | ~3 |  |  |
| B3 |  | 3.23 | 2.87 |

biological target: A6 (lane under "Human S100 Proteins") (Homo sapiens, UniProt P06703); test: Western blot on human S100 proteins

| Binder | binding result |
| --- | --- |
| B1 | no binding |
| B4 | no binding |
| B5 | no binding |

Biological target: T2, A8 (lane under "Human S100 Proteins")
Test: Western blot on human S100 proteins

| Binder | binding result |
| --- | --- |
| B1 | no binding |
| B4 | no binding |
| B5 | no binding |

biological target: T4, human S100A4 dimer (Homo sapiens, UniProt P26447 1-101); test: SPR, Biacore T200, 25 C; S100A4 captured via anti-His, antibody as analyte (0.78-200 nM), 1:1 fit
T4 construct: In the SPR it was captured on an anti-His surface, so it carried a His tag; also called recombinant human S100A4 dimer
Protocol: Quantitative, kinetic analysis of the interactions between 14 humanized antibodies and 2 control antibodies with the human S100A4 dimer were performed using surface plasmon resonance (SPR).
The analysis was performed using a Biacore T200 instrument, at 25° C. analysis temperature, at a flow rate of 50 μl/min for quantitative kinetic interaction analyses.

T4 sequence (P26447 whole entry, one chain of several): as above

| Binder | Kd [nM] | koff [s⁻¹] | kon [M⁻¹ s⁻¹] |
| --- | --- | --- | --- |
| B3 | 1.65 | 0.000206 | 124000 |
| B4 | 2.25 | 0.000537 | 239000 |
| B5 | 2.65 | 0.000576 | 217000 |
| B6 | 3.47 | 0.000674 | 194000 |
| B7 | 3 | 0.00064 | 213000 |
| B8 | 1.99 | 0.000523 | 263000 |
| B9 | 4.72 | 0.000882 | 187000 |
| B10 | 2.43 | 0.00056 | 231000 |
| B11 | 2.84 | 0.000596 | 210000 |
| B12 | 2.15 | 0.000507 | 236000 |
| B13 | 3.21 | 0.000679 | 211000 |
| B14 | 2.38 | 0.000512 | 215000 |
| B15 | 2.77 | 0.000592 | 213000 |
| B16 | 1.46 | 0.000279 | 191000 |
| B17 | 0.958 | 0.000219 | 229000 |
| B18 | 1.15 | 0.000361 | 313000 |
